Assay results published in paper PMC5737660.
Like-named read-outs stand apart in the source and are kept apart here.

What was measured:
[1] = biological target: CdiI^NC101-His6 immunity protein, crystallography construct (E. coli NC101); test: crystal structure
[2] = biological target: CdiI^NC101-His6 immunity protein, crystallography construct (E. coli NC101); test: crystal structure; remark: listed apart in the source

- stoichiometry N [1]: 2
- stoichiometry N [2]: 2
Substance: CdiI^NC101-His6 immunity protein, crystallography construct (natural protein)
